We go through 8 molecules from paper PMC3676807, “A Chimeric UDP-Glucose Pyrophosphorylase Produced by Protein Engineering Exhibits Sensitivity to Allosteric Regulators” (International Journal of Molecular Sciences, 2013).

For orientation: Km means the substrate concentration at which the rate is half of its maximum. The term stoichiometry N denotes a count of units in the complex or per binding partner. As usually defined, the Vmax is the rate approached at saturating substrate.

In series [1] the target is T1, SmuGalU-Δ294EcoGlgC (chimeric UDP-Glc PPase).
T1 construct: gene galU; entire S. mutans GalU fused to the 137 C-terminal residues of E. coli GlgC (from P295); N-terminal His-tag kept; E. coli BL21 (DE3) pLysS; homotetramer ~200 kDa
Briefly: Pi release after pyrophosphatase, Malachite Green; Hill fit. The format is biochemical, Streptococcus mutans; Escherichia coli. The following applies: allosteric activator; 1 mM Glc-1P, 1 mM UTP, 3 mM Mg2+, pH 8.0, 37 °C; read-out: A0.5.

In series [2] the test system is T1, SmuGalU-Δ294EcoGlgC (chimeric UDP-Glc PPase). Described as above. The format is biochemical, Streptococcus mutans; Escherichia coli. The following applies: UDP-Glc synthesis, no effector, 3 mM Mg2+, pH 8.0, 37 °C. The source says:
Pi release after pyrophosphatase, Malachite Green; Hill fit on SmuGalU-Δ294EcoGlgC (chimeric UDP-Glc PPase)

The target in series [3] is UDP-glucose pyrophosphorylase from Streptococcus mutans (SmuGalU) (Streptococcus mutans ATCC 25175). The series is described as follows: SEC; gel filtration on Superdex 200 (Tricorn 5/200 column), calibrated with protein standards 44-669 kDa; mass of the native protein; buffer not stated. (In gel filtration, larger molecules generally elute earlier.)
For series [4], the target named is chimeric SmuGalU-Δ294EcoGlgC (Streptococcus mutans ATCC 25175 | Escherichia coli) (UniProt P0A6V1). Described as above.
Substrate in series [5]: O=P(O)(O)O[C@H]1O[C@H](CO)[C@@H](O)[C@H](O)[C@H]1O
Briefly: Pi release after pyrophosphatase, Malachite Green; Hill fit. The format is biochemical, Streptococcus mutans. The following applies: UDP-Glc synthesis, saturating UTP, 3 mM Mg2+, pH 8.0, 37 °C.

Substrate in series [6]: Cc1cn([C@H]2C[C@H](O)[C@@H](COP(=O)(O)OP(=O)(O)OP(=O)(O)O)O2)c(=O)[nH]c1=O
Described as above. Particulars: dTDP-Glc synthesis, 1 mM Glc-1P, 3 mM Mg2+, pH 8.0, 37 °C. The format is biochemical, Streptococcus mutans.

Substrate in series [7]: O=c1ccn([C@@H]2O[C@H](COP(=O)(O)OP(=O)(O)OP(=O)(O)O)[C@@H](O)[C@H]2O)c(=O)[nH]1
The series is described as above. The format is biochemical, Streptococcus mutans. The following applies: UDP-Glc synthesis, saturating Glc-1P, 3 mM Mg2+, pH 8.0, 37 °C.

For the molecule `O=C(O)[C@H](O)COP(=O)(O)O` [3-PGA], the EC50 in series [1] is 5.4 mM.
In the case of `O=P(O)(O)OC[C@H]1OC(O)(COP(=O)(O)O)[C@@H](O)[C@@H]1O` (some centres unmarked) [Fru-1,6-bisP], the EC50 in series [1] was found to be 2 mM.
In the case of `O=P(O)(O)O[C@H]1O[C@H](CO)[C@@H](O)[C@H](O)[C@H]1O` [Glc-1P], in series [2] (saturating UTP), the Km amounted to 60 ± 5 µM.
With `CC(=O)C(=O)O` [Pyr], in series [1], the EC50 is 30 mM.
Consider `O=c1ccn([C@@H]2O[C@H](COP(=O)(O)OP(=O)(O)OP(=O)(O)O)[C@@H](O)[C@H]2O)c(=O)[nH]1` [UTP], for which, in series [2] (saturating Glc-1P), the Km was 240 ± 20 µM.
“UDP-glucose pyrophosphorylase from Streptococcus mutans (SmuGalU) (enzyme)”: the stoichiometry N in series [3] was 4.
In series [4], “chimeric SmuGalU-Δ294EcoGlgC (from UniProt P0A6V1 295-431) (enzyme)” came in with a stoichiometry N of 4.

B1: SmuGalU (UDP-Glc PPase from S. mutans) (Streptococcus mutans UA159) (protein)
chain: MPSKKVRKAVIPAAGLGTRFLPATKALAKEMLPIVDKPTIQFIVEEALKSGIEDILVVTGKSKRSIEDHFDSNFELEYNLEQKGKTDLLKLVNDTTAINLHFIRQSHPRGLGDAVLQAKAFVGNEPFVVMLGDDLMDITDDKAIPLTRQLMNDYEETHASTIAVMEVPHEDVSAYGVIAPQGEGVSGLYSVDTFVEKPAPKEAPSNLAIIGRYLLTPEIFTILETQEPGAGNEVQLTDAIDTLNKTQRVFAREFKGKRYDVGDKFGFMKTSIDYALKHPQVKEDLKAYIIELGKKLDQKSTQKNSD
notes: full-length, N-terminal His-tag kept (pRSET-B), expressed in E. coli BL21 (DE3), Ni-NTA purified; homotetramer ~150 kDa; gene 921 bp
With B1, the K0.5 was found to be 0.090 ± 0.005 mM in series [5], 0.54 mM in series [6] and 0.68 ± 0.06 mM in series [7]. Moreover, the Vmax in series [5] and in series [7] was 62.1 µmol/min/mg in each case. For the same molecule, the results for the Vmax/Km in series [5] and in series [7] were 690000 µL/min/mg and 91300 µL/min/mg, respectively.
